Source: the Human Domainome abundance scans (Beltran et al. 2025)
± gives the uncertainty stated by the source.

B1: POU domain, class 6, transcription factor 2, residues 609 to 663; numbered along this chain, P78424 (parent)
chain: KRRTSFTPQALEILNAHFEKNTHPSGQEMTEIAEKLNYDREVVRVWFCNKRQALK

Variants of: B1
Test: abundance fitness (aPCA) (normalised: wild type 0, dead -1); higher = more abundant; growth selection in yeast, the domain comes from the species named
Details: Homo sapiens

Variant	abundance fitness
KRRTSFTPQALEILNAHFEKNTEPSGQEMTEIAEKLNYDREVVRVWFCNKRQALK [H23E]	0.072 ± 0.11
KRRTSFTPQALEILNAHFEKNTFPSGQEMTEIAEKLNYDREVVRVWFCNKRQALK [H23F]	-0.096 ± 0.14
KRRTSFTPQALEILNAHFEKNTVPSGQEMTEIAEKLNYDREVVRVWFCNKRQALK [H23V]	-0.086 ± 0.074
KRRTSFTPQALEILNAHFEKNTAPSGQEMTEIAEKLNYDREVVRVWFCNKRQALK [H23A]	-0.062 ± 0.094
KRRTSFTPQALEILNAHFEKNTPPSGQEMTEIAEKLNYDREVVRVWFCNKRQALK [H23P]	-1.1 ± 0.41
KRRTSFTPQALEILNAHFIKNTHPSGQEMTEIAEKLNYDREVVRVWFCNKRQALK [E19I]	0.032 ± 0.1
KRRTSFTPQALEILNAHFHKNTHPSGQEMTEIAEKLNYDREVVRVWFCNKRQALK [E19H]	-0.092 ± 0.14
KRRTSFTPQALEILNAHFPKNTHPSGQEMTEIAEKLNYDREVVRVWFCNKRQALK [E19P]	-1.05 ± 0.24
KRRTSFTPQALEILNAHFSKNTHPSGQEMTEIAEKLNYDREVVRVWFCNKRQALK [E19S]	0.073 ± 0.072
KRRTSFTPQALEILNAHFQKNTHPSGQEMTEIAEKLNYDREVVRVWFCNKRQALK [E19Q]	-0.391 ± 0.18
KRRTSFTPQALEILNAHFMKNTHPSGQEMTEIAEKLNYDREVVRVWFCNKRQALK [E19M]	-0.013 ± 0.11
KRRTSFTPQALEILNAHFGKNTHPSGQEMTEIAEKLNYDREVVRVWFCNKRQALK [E19G]	-0.148 ± 0.056
KRRTSFTPQALEILNAHFRKNTHPSGQEMTEIAEKLNYDREVVRVWFCNKRQALK [E19R]	-0.05 ± 0.071
KRRTSFTPQALEILNAHFLKNTHPSGQEMTEIAEKLNYDREVVRVWFCNKRQALK [E19L]	-0.057 ± 0.077
KRRTSFTPQALEILNAHFWKNTHPSGQEMTEIAEKLNYDREVVRVWFCNKRQALK [E19W]	-0.127 ± 0.1
KRRTSFTPQALEILNAHFNKNTHPSGQEMTEIAEKLNYDREVVRVWFCNKRQALK [E19N]	-0.07 ± 0.15
KRRTSFTPQALEILNAHFEKNTHESGQEMTEIAEKLNYDREVVRVWFCNKRQALK [P24E]	-0.978 ± 0.11
KRRTSFTPQALEILNAHFEKNTHHSGQEMTEIAEKLNYDREVVRVWFCNKRQALK [P24H]	-0.905 ± 0.17
KRRTSFTPQALEILNAHFEKNTHCSGQEMTEIAEKLNYDREVVRVWFCNKRQALK [P24C]	-0.462 ± 0.1
KRRTSFTPQALEILNAHFEKNTHQSGQEMTEIAEKLNYDREVVRVWFCNKRQALK [P24Q]	-0.741 ± 0.14
KRRTSFTPQALEILNAHFEKNTHRSGQEMTEIAEKLNYDREVVRVWFCNKRQALK [P24R]	-0.909 ± 0.068
KRRTSFTPQALEILNAHFEKNTHISGQEMTEIAEKLNYDREVVRVWFCNKRQALK [P24I]	-0.21 ± 0.1
KRRTSFTPQALEILNAHFEKNTHNSGQEMTEIAEKLNYDREVVRVWFCNKRQALK [P24N]	-0.96 ± 0.24
KRRTSFTPQALEILNAHFEKNTHDSGQEMTEIAEKLNYDREVVRVWFCNKRQALK [P24D]	-0.792 ± 0.12

Variant	abundance fitness
KRRTSFTPQALEILNAHFEKNTHTSGQEMTEIAEKLNYDREVVRVWFCNKRQALK [P24T]	-0.641 ± 0.11
KRRTSFTPQALEILNAHFEKNTHASGQEMTEIAEKLNYDREVVRVWFCNKRQALK [P24A]	-0.497 ± 0.068
KRRTSFTPQALEILNAHFEKNTHKSGQEMTEIAEKLNYDREVVRVWFCNKRQALK [P24K]	-1.1 ± 0.15
KRRTSFTPQALEILNAHFEKNTHLSGQEMTEIAEKLNYDREVVRVWFCNKRQALK [P24L]	-0.394 ± 0.064
KRRTSFTPQALEILNAHFEKNTHFSGQEMTEIAEKLNYDREVVRVWFCNKRQALK [P24F]	-0.916 ± 0.14
KRRTSFTPQALEILNAHFEKNTHMSGQEMTEIAEKLNYDREVVRVWFCNKRQALK [P24M]	-0.327 ± 0.074
KRRTSFTPQALEILNAHFEKATHPSGQEMTEIAEKLNYDREVVRVWFCNKRQALK [N21A]	-0.198 ± 0.08
KRRTSFTPQALEILNAHFEKTTHPSGQEMTEIAEKLNYDREVVRVWFCNKRQALK [N21T]	-0.173 ± 0.1
KRRTSFTPQALEILNAHFEKHTHPSGQEMTEIAEKLNYDREVVRVWFCNKRQALK [N21H]	-0.182 ± 0.1
KRRTSFTPQALEILNAHFEKQTHPSGQEMTEIAEKLNYDREVVRVWFCNKRQALK [N21Q]	-0.044 ± 0.15
KRRTSFTPQALEILNAHFEKETHPSGQEMTEIAEKLNYDREVVRVWFCNKRQALK [N21E]	-0.016 ± 0.11
KRRTSFTPQALEILNAHFEKPTHPSGQEMTEIAEKLNYDREVVRVWFCNKRQALK [N21P]	-0.987 ± 0.33
KRRTSFTPQALEILNAHFEKSTHPSGQEMTEIAEKLNYDREVVRVWFCNKRQALK [N21S]	-0.17 ± 0.08
KRRTSFTPQALEILNAHFEKMTHPSGQEMTEIAEKLNYDREVVRVWFCNKRQALK [N21M]	-0.421 ± 0.14
KRRTSFTPQALEILNAHFEKLTHPSGQEMTEIAEKLNYDREVVRVWFCNKRQALK [N21L]	-0.551 ± 0.071
KRRTSFTPQALEILNAHFEKRTHPSGQEMTEIAEKLNYDREVVRVWFCNKRQALK [N21R]	-0.274 ± 0.064
KRRTSFTPQALEILNAHFEKCTHPSGQEMTEIAEKLNYDREVVRVWFCNKRQALK [N21C]	-0.008 ± 0.1
KRRTSFTPQALEILNAHFEKDTHPSGQEMTEIAEKLNYDREVVRVWFCNKRQALK [N21D]	-0.153 ± 0.092
KRRTSFTPQALEILNAHFEKYTHPSGQEMTEIAEKLNYDREVVRVWFCNKRQALK [N21Y]	-0.36 ± 0.13
KRRTSFTPQALEILNAHFEKITHPSGQEMTEIAEKLNYDREVVRVWFCNKRQALK [N21I]	-0.351 ± 0.18
KRRTSFTPQALEILNAHFEKFTHPSGQEMTEIAEKLNYDREVVRVWFCNKRQALK [N21F]	-0.659 ± 0.12
KRRTSFTPQALEILNAHFEKWTHPSGQEMTEIAEKLNYDREVVRVWFCNKRQALK [N21W]	-0.67 ± 0.09
KRRTSFTPQALEILNAHFEKVTHPSGQEMTEIAEKLNYDREVVRVWFCNKRQALK [N21V]	-0.335 ± 0.068
KRRTSFTPQALEILNAHFEKKTHPSGQEMTEIAEKLNYDREVVRVWFCNKRQALK [N21K]	-0.303 ± 0.13
